Changes are numbered by the printed parent chain. Each block holds one binder with its values, some of them ahead of it.
Biological target: human plasma-derived Factor IXa (human, UniProt P00740 47-191; P00740 227-461)
Experiment: cell-based or functional assay

Sequence of human plasma-derived Factor IXa (P00740 47-191, chain 1 of 2): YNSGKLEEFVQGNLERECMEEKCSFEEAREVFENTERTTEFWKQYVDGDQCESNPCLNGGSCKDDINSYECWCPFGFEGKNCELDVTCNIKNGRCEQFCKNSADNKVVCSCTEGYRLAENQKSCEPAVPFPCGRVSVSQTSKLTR
Sequence of human plasma-derived Factor IXa (P00740 227-461, chain 2 of 2): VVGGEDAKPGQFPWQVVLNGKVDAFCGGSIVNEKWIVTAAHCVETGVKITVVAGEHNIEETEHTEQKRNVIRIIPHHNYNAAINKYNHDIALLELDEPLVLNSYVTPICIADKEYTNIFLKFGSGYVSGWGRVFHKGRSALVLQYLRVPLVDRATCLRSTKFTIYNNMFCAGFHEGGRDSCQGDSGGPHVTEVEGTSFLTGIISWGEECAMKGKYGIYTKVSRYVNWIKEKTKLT

- Stimulation Index, FXa generation assay, 800 nM OA antibody: 5820 fold
B1: one-armed (OA) mAb01-9986 (antibody, V domains shown)
VH: EVQLVESGGGLVQPGRSLRLSCAASGFTFHDYAMHWVRQVPGKGLEWVSGISWRGDIGGYVKSVKGRFTISRDNAKNSLYLQMNSLRAEDTALYYCVKSYGSGSFYNAFDSWGQGTLVTVSS
VL: DIQMTQSPSTLSASVGDRVTITCRASQSISSWLAWYQQKPGKAPKFLIYKASRLERGTPSRFSGSGSGTEFSLTISSLQPDDFATYYCLEYSSYIRTFGQGTKVEIK

- Stimulation Index, FXa generation assay, 800 nM OA antibody: 3270 fold
B2: one-armed (OA) mAb11-0164 (antibody, V domains shown)
VH: B1 VH with R19K, T28R, H30D, R54K, V61A, K62D, M83L
VL: B1 VL

- Stimulation Index, FXa generation assay, 800 nM OA antibody: 3590 fold
B3: one-armed (OA) mAb11-1076 (antibody, V domains shown)
VH: B1 VH with R54K, K62D, V97A
VL: B1 VL with R53K, S72T

- Stimulation Index, FXa generation assay, 800 nM OA antibody: 3960 fold
B4: one-armed (OA) mAb11-1039 (antibody, V domains shown)
VH: B1 VH with R19K, G26K, V40A, R54K, K62D, V97A
VL: B1 VL with R53K, E55D, S72T

- Stimulation Index, FXa generation assay, 800 nM OA antibody: 1880 fold
B5: one-armed (OA) mAb11-0931 (antibody, V domains shown)
VH: B1 VH with R54K, K62D, A75E
VL: B1 VL with E55D, T58L

- Stimulation Index, FXa generation assay, 800 nM OA antibody: 1570 fold
B6: one-armed (OA) mAb11-0935 (antibody, V domains shown)
VH: B1 VH with R54K, K62D, A75E
VL: B1 VL with E55D, T58Q

- Stimulation Index, FXa generation assay, 800 nM OA antibody: 3370 fold
B7: one-armed (OA) mAb11-0962 (antibody, V domains shown)
VH: B1 VH with G26K, V40A, R54K, V61A, K62D, V97A
VL: B1 VL with R53K, E55D, S72T

- Stimulation Index, FXa generation assay, 800 nM OA antibody: 2860 fold
B8: one-armed (OA) mAb11-0965 (antibody, V domains shown)
VH: B1 VH with G26K, V40A, R54K, V61A, K62D, V97A
VL: B1 VL with R53K, S72T

- Stimulation Index, FXa generation assay, 1600 nM OA antibody: 1390 fold
B9: one-armed (OA) mAb01-9373 (antibody, V domains shown)
VH: B1 VH with R19K, G58I, K62D, M83L
VL: B1 VL with V15A, R18E, Q27K, K45R, E55D, S72T, S77H

- Stimulation Index, FXa generation assay, 800 nM OA antibody: 1510 fold
B10: one-armed (OA) mAb11-0049 (antibody, V domains shown)
VH: B1 VH with V40A, G58K, K62D, M83L, V97A
VL: B1 VL with V15A, T22S, F46L, E55D, S72T, S92N

- Stimulation Index, FXa generation assay, 800 nM OA antibody: 6150 fold
B11: one-armed (OA) mAb11-1073 (antibody, V domains shown)
VH: B1 VH with R54K, K62D, V97A
VL: B1 VL with R53K, E55D, S72T

- Stimulation Index, FXa generation assay, 800 nM OA antibody: 2680 fold
B12: one-armed (OA) mAb11-0937 (antibody, V domains shown)
VH: B1 VH with R54K, K62D, A75E
VL: B1 VL with E55D, T58S

- Stimulation Index, FXa generation assay, 800 nM OA antibody: 1690 fold
B13: one-armed (OA) mAb11-0932 (antibody, V domains shown)
VH: B1 VH with R54K, K62D, A75E
VL: B1 VL with E55D, T58M

- Stimulation Index, FXa generation assay, 800 nM OA antibody: 3770 fold
B14: one-armed (OA) mAb11-0723 (antibody, V domains shown)
VH: B1 VH with R19K, H30D, R54K, K62D, M83L, V97A
VL: B1 VL with V15A, E55D

- Stimulation Index, FXa generation assay, 1600 nM OA antibody: 8480 fold
B15: one-armed (OA) mAb11-0173 (antibody, V domains shown)
VH: B1 VH with V40A, R54K, K62D, V97A
VL: B1 VL with R53K, E55D, S72T

- Stimulation Index, FXa generation assay, 800 nM OA antibody: 3320 fold
B16: one-armed (OA) mAb11-0149 (antibody, V domains shown)
VH: B1 VH with R19K, H30D, V40A, R54K, K62D
VL: B1 VL with V15A, R18E, S30K, E55D, S60Q, S77R

- Stimulation Index, FXa generation assay, 800 nM OA antibody: 1820 fold
B17: one-armed (OA) mAb11-0938 (antibody, V domains shown)
VH: B1 VH with R54K, K62D, A75E
VL: B1 VL with E55D, T58V

- Stimulation Index, FXa generation assay, 800 nM OA antibody: 4650 fold
B18: one-armed (OA) mAb11-1021 (antibody, V domains shown)
VH: B1 VH with G26K, V40A, R54K, K62D, V97A
VL: B1 VL with R53K, E55D, S72T

- Stimulation Index, FXa generation assay, 800 nM OA antibody: 5750 fold
B19: one-armed (OA) mAb11-1030 (antibody, V domains shown)
VH: B1 VH with G26K, R54K, K62D, V97A
VL: B1 VL with R53K, E55D, S72T

- Stimulation Index, FXa generation assay, 800 nM OA antibody: 1610 fold
B20: one-armed (OA) mAb11-0933 (antibody, V domains shown)
VH: B1 VH with R54K, K62D, A75E
VL: B1 VL with E55D, T58N

- Stimulation Index, FXa generation assay, 800 nM OA antibody: 2860 fold
B21: one-armed (OA) mAb11-0047 (antibody, V domains shown)
VH: B1 VH with V40A, G58K, K62D, M83L, V97A
VL: B1 VL with V15A, Q27K, E55D, S60Q

- Stimulation Index, FXa generation assay, 800 nM OA antibody: 3690 fold
B22: one-armed (OA) mAb11-0174 (antibody, V domains shown)
VH: B1 VH with R19K, V40A, R54K, K62D, V97A
VL: B1 VL with R53K, E55D, S72T

- Stimulation Index, FXa generation assay, 800 nM OA antibody: 4320 fold
B23: one-armed (OA) mAb11-1042 (antibody, V domains shown)
VH: B1 VH with R19K, G26K, V40A, R54K, K62D, V97A
VL: B1 VL with R53K, S72T

- Stimulation Index, FXa generation assay, 800 nM OA antibody: 5130 fold
B24: one-armed (OA) mAb11-1033 (antibody, V domains shown)
VH: B1 VH with G26K, R54K, K62D, V97A
VL: B1 VL with R53K, S72T

- Stimulation Index, FXa generation assay, 800 nM OA antibody: 2010 fold
B25: one-armed (OA) mAb11-0939 (antibody, V domains shown)
VH: B1 VH with R54K, K62D, A75E
VL: B1 VL with E55D, T58W

- Stimulation Index, FXa generation assay, 800 nM OA antibody: 4550 fold
B26: one-armed (OA) mAb11-0160 (antibody, V domains shown)
VH: B1 VH with R19K, T28R, H30D, R54K, V61A, K62D, M83L
VL: B1 VL with R18E, Q27K, K45R, S60Q, S72T, S76Y

- Stimulation Index, FXa generation assay, 800 nM OA antibody: 3260 fold
B27: one-armed (OA) mAb11-0107 (antibody, V domains shown)
VH: B1 VH with R19K, M83L
VL: B1 VL with R18E, S52Q, E55D, S60Q, S72T

- Stimulation Index, FXa generation assay, 800 nM OA antibody: 3650 fold
B28: one-armed (OA) mAb11-1024 (antibody, V domains shown)
VH: B1 VH with G26K, V40A, R54K, K62D, V97A
VL: B1 VL with R53K, S72T

- Stimulation Index, FXa generation assay, 800 nM OA antibody: 2820 fold
B29: one-armed (OA) mAb11-0923 (antibody, V domains shown)
VH: B1 VH with R54K, K62D, A75E
VL: B1 VL with E55D, T58C

- Stimulation Index, FXa generation assay, 800 nM OA antibody: 1560 fold
B30: one-armed (OA) mAb11-0929 (antibody, V domains shown)
VH: B1 VH with R54K, K62D, A75E
VL: B1 VL with E55D, T58I

- Stimulation Index, FXa generation assay, 1600 nM OA antibody: 5900 fold
B31: one-armed (OA) mAb01-9016 (antibody, V domains shown)
VH: B1 VH with R19K, H30D, K62D, M83L
VL: B1 VL with V15A, T58V

— patent publication US20260193376A1 (Novo Nordisk, published 2026)
